# Data taken from the DeepSol protein solubility set.
# Assay: soluble on expression in E. coli; label from the status in PepcDB or PDB records
row,Sequence,soluble on expression in E. coli
1,MKIAVVAANGKAGQLITKEAVERSLDVTAIVRSENKTVAHQVIQKDLFDLTKEDIAPFDVIVDAFGQMNKDKLNEHSQSLEHLSNLVSDSQKRLIIIGGAGSLYVDKAHTERLIDSPDMPEEVKPISMAQVKTFEEIKERDDVQWTFVCPAPDFQFDGEKTGAYKVSDDEVIGTHVSYADFAKAIVDEAMNPEHIQSRFAVFAKLEHHHHHH,soluble
2,MKIDLNCDLGEGFGVWQMGDDAAMMQIATSVNIACGFHAGDPDIMHATVKLAKQNGVAIGAHPGFRDLHGFGRRPVPGITAAEIENLVAYQIGALQAVAALAGHKVTHVKAHGALSNVACEDDMTARAIASAIKAVDPSLVFVVLANSKLMLAGEAAGLPLAHEVFADRAYEDDGNLVSRKKPGAVLHDPNEIAERVLRMAQDGAVVSVTGKVIKMRTDTVCIHGDTKGAVEIARGVRRKLEASGITVAPFAGTLEHHHHHH,soluble
3,MKIIKRSGSEVTFDISKIMAAVSKANMEVVHSERLSEEQIETISNNVESICKEMNRSLSVEEIQDLVENQIMNLRAFAVARKYITYRYKRALVRKSNST,not soluble
4,MKILPLALFIIPFLAGCGANNTPPQTPIPGEKTSAKLRTLETGAAAIQSRPPVDAISTYLDGFHFYSGDKNGQMEAHHYVTVLNEDVMQAVIYDGNTKNARLMGVEYIISERLFKTLPPEEKKLWHSHQYEVKSGSLVAPGLPQVADKALMSKIVNTYGKTWHTWHTDRDKTLPMGIPALMMGFTGDGQLDPALLADRDRRLGIDTQAIKRERQDLPEHPVVKGANAWEQGEVIQLQRVQGSGEHGRGDTAHFGTSEQSRQLEHHHHHH,soluble
5,MKIQLIAVGTKMPKWVEEGFQEYRRRFPHDMPLELVEITAGKRGKNADIARILQKEGEAMLAAVPKGNRIVTLDIPGKRWDTEELAVQLESWKLDGRDVSILIGGPEGLAPACKAAADQSWSLSPLTLPHPLVRVVMAESLYRAWSITTNHPYHRELEHHHHHH,soluble
6,MKIRVVSSKEEIDTLKLNEEIVHLAFRPSNKDIFKLILKCPEVKAIHIPSSYKRTISSSAQMYLSMQNIALLEGDVWGHRKDINEYSEVSEHVFDRIKELKEEGLSDEDTIEKLVRETRLSPDFVTFIISN,not soluble
7,MKISSIDSIFAAWDGSITEARRLQSDMAERIVLKDEPNLLSEPTLLAGFDVGFEDEGRTTRAAAVLMNAGDLRLLETHVVRVPTSMPYVPGLLSFRELPALLQALTQLSRIPALVFVDGHGIAHPRRLGIAAHFGLVTNLPCIGVAKKRLVGDFVEPGTAFGEHTPILLHGTQVGWALRSKMHCKPLIISPGHKVSLHSALTWTQRCLTGYRLPEPTRQADRLASRRGQKIVSDLPSLLLEHHHHHH,soluble
8,MKITKLETVRVAERTNLLWVLVHTDEGITGLGETFFGAETVETYVHEYIAPRVIGRDPLQIDLLAQDLVGYLGFRSSGAEVRGNSAFDIALWDIFGKATNQPIAQLLGGFSRREIRTYNTCAGTEYIKKATGQQTANYGLSGGKDYDDLNGFLHRADELAHSLLEDGITAMKIWPFDAAAEKTRGQYISMPDLKSALEPFEKIRKAVGDKMDIMVEFHSMWQLLPAMQIAKALTPYQTFWHEDPIKMDSLSSLTRYAAVSPAPISASETLGSRWAFRDLLETGAAGVVMLDISWCGGLSEARKIASMAEAWHLPVAPHDCTGPVVLCASTHLSLNAPNALVQESVRAFYKTWYRDLVTALPEVKNGMITVPPGAGLGMELHPDIEKTFTVSRRFSDAASI,not soluble
9,MKITVLGCGALGQLWLTALCKQGHEVQGWLRVPQPYCSVNLVETDGSIFNESLTANDPDFLATSDLLLVTLKAWQVSDAVKSLASTLPVTTPILLIHNGMGTIEELQNIQQPLLMGTTTHAARRDGNVIIHVANGITHIGPARQQDGDYSYLADILQTVLPDVAWHNNIRAELWRKLAVNCVINPLTAIWNCPNGELRHHPQEIMQICEEVAAVIEREGHHTSAEDLRDYVMQVIDATAENISSMLQDIRALRHTEIDYINGFLLRRARAHGIAVPENTRLFEMVKRKESEYERIGTGLPRPWLEHHHHHH,not soluble
10,MKIVCIGAAPTALGAAYRLNELKNEGNEAAQNAEIVLLEQEAIAGGLSCTVTDEKGFLWDMGGHITFNHNYPYYEKATQWAVDDWNKLARNCMVDMNYLYDKKGIHLVPYPAQFAVPLFPDEVKNRCLADLKERYENPQDGTTPDNFEEWVLQHFGPTILNTFFKPYTKKVWTVEPLKMSPNWVGSRVAKLPQEKLEELCSMDQAELANADFGWGPNSYFTFPTYGGTGNVWNSMAKKLPNEWFKFNNKVTGVDHKEKTVEILEKGQTEPTKMSYDVLLNTAPIDQLVNNTQITAPLDIVHNKVFIVGVGLRKPMTSFLEKFTWLYFPDREVPFFRVTILSRYGEVTPDGDKYWSVMCECARPIDDPITEEEMVKKTLDGLVIKDMITREAIESVYSITLPYGYPIPTPNRDRELARAHGELERHQIYSRGRFGGWKYEASNQDHCFIQGKEFIDRVILGEPEKLYKTGVPTIPRGAAALEHHHHHH,soluble
11,MKIVEALKANGVEVIITEKADVLIKNFENAHISYALSADEKTGVIFFGGFEEKMKAGLAEHHVAILKEEDVKENILLAYEHARRKSDVLFASSSASKTADIEGKTVFGMHGPRKFTVVLVVRK,not soluble
12,MKIVEVKHPLVKHKLGLMREQDISTKRFRELASEVGSLLTYEATADLETEKVTIEGWNGPVEIDQIKGKKITVVPILRAGLGMMDGVLENVPSARISVVGMYRNEETLEPVPYFQKLVSNIDERMALIVDPMLATGGSVIATIDLLKKAGCSSIKVLVLVAAPEGIAALEKAHPDVELYTASIDQGLNEHGYIIPGLGDAGDKIFGTK,soluble
13,MKIYCCLNTVGFFMDGCGVIPPDSKEITAEHWQSLLKSQAEGGVIDFSVFPPSIKEVIRTHDDEVADANFQKQMLISDATDFINSRQWQGKAALGRLKEDELKQYNLWLDYLEALELVDTSSAPDIEWPTPPAVQARLEHHHHHH,soluble
14,MKKALPNTKVTVKLRRSNYKEEWYLIIESYPVYKRGSKRASRVVESINRTISTPIWDKSSIARILPDGTFNYKPKRDLNGIIQCRSTIDQEACIYADNVRKLRQHEYDSAILYTDKENEIAAQNERSEQDFIKYFNRIISTRHPNSSDSIIVNWRRVGELLKMYSQGQPIPFKAISVKLLEDIKMFLLRAPMGGNKKGTISQNTASTYFSILKAGLKQAFIDEYLTVDISAKVKGITNIEKPRVALTMNEVQMLVDTPCKDDVLKRAFLFSILTGLRHSDIQTLKWKQIQQTSKGTWQAVVIQQKTKRPDYKPVIQQALQLCGIRPDDDEALVFEGLTDASWISRPLKVWIEASGIKKHITF,not soluble
15,MKKCNIMIVGVGGQGTLLASRIIGNVALKQNYDVKVSEVHGMSQRGGSVVTYVKIGDKVYSPIIEKGEADIIMAFEMLEALRWAEYLKEDGKLLVNEQKINPMPVIIGKEKYPENIMQMLKENYKNVISLDALKIARECKNIKAVNTVLIGLLAKVLEIDKEVWIESIKEVVPSKAVDVNLKAFEEGYSRG,soluble
16,MKKEQISTQFYEVNPHTMIIFPKKSGSIVYSEIYEVDSHYTSKFTPFELIKTSCNFFGSSYDGGRRNGIPKIKTSSQKDVFILLLYRRNSISVTNY,not soluble
17,MKKIGIIGGTTPESTLYYYKKYIEISREKFEKYFYPELIIYSINFKEFFQNPEGWEGRKKILINAAKALERAGAELIAFAANTPHLVFDDVQREVNVPMVSIIDAVAEEILKRGVRKVLLLGTKTTMTADFYIKTLEEKGLEVVVPNDEEKEELNRIIFEELAFGNLKNKEWIVRLIEKYRESEGIEGVILGCTELPLAIKQGDVSVEVFDSAEIHMRKLIELASE,soluble
18,MKKIIALMLFLTFFAHANDSEPGSQYLKAAEAGDRRAQYFLADSWFSSGDLSKAEYWAQKAADSGDADACALLAQIKITNPVSLDYPQAKVLAEKAAQAGSKEGEVTLAHILVNTQAGKPDYPKAISLLENASEDLENDSAVDAQMLLGLIYANGVGIKADDDKATWYFKRSSAISRTGYSEYWAGMMFLNGEEGFIEKNKQKALHWLNLSCMEGFDTGCEEFEKLTNGLEHHHHHH,not soluble
19,MKKLAILLVCAAMLASCNGLGGGSKDLKAENDSLLMELTQRNAELDEMMGTFNEVQEGFRKINAAESRVDLTRGTISENSATAKQQIASDIEFITKQMEENKAQIAKLQAMLKSSKNNSAQLKKAVESLTQELVAKTQRIEELQAELASKNIRIQELDAAVTGLTADKESLAAENEAKAKTVAEQDKAINSAWFVFGTKSELKTQKILEKGDVLKSADFNKDYFTQIDIRTTKEIKLYSKRAELLTTHPAKSYELVKDDKGQLTLKITNPKEFWSVSKYLVIQVK,not soluble
20,MKKLITALSLVLVSYASMAAQECSLDFVKSAPNSRYLYSDLGVVTDLKTGLTWMRCPVGMTWDMAQKACSGEAQKVTWQNALLTAEQIRNASGNHVLHNFADKKQWRLPNIKELVTLTERACFHPSMNGTAFESAYSLETGDLGSYIWSNTPGTDARQIMTFESVNGDVIGYSPEANQFSVLLVTDEDLEHHHHHH,not soluble
21,MKKLLFFLFTLVVLASGCGKKNTFTLEGSIKGLPSDTILVFYQEPDYKLDTILLSKGKFTYTITPDTFTIFSLLLGEKQILPIYADKGESVTLNGMVGKIEVKGKGENAQLAKHIQYLSTLENNKAAVMTAVDSLIKTNPSSYSNIYLIDKYYVQDSLPDYNHIDQLIKGLSGIIKDTPYIIELQNKLSEKKELTEHRYVSNISCTDKKGKTVNWNSVKGKYVLLDFWASWNKESIATQDSLVSVQKALKKDKFVIISLSLDLDKKEWMEKIIQRDTTQWKQVCDFKGWNNSIVKQQGITRIPANILIGPDKRVITQDIRGKELIDKVRQLTEQDKEKEKAAKEAERARKRQNKK,not soluble
22,MKKLMLGNEAVARGAYEAGVLVATAYPGTPSTEITEYISKYSEINSEWSVNEKVALEVGIGSAIAGARTIVSMKHVGLNVAADPLMTVAYTGINAGLLIVVADDPSMHSSQNEQDTRYYGMFAKIPVLEPSDSQECKDFVKLGFEISEKFDTPVILRLSTRVSHSQSLVELEEKESIELKPYD,not soluble
23,MKKLNFSELNWINTPENFSITENELVIHTSPDTDFWRGTYYGLEYNNAPGIVMRSEERFWTLKSKVAFESNMFFDQCGMLIYIDDNNWMKSGIEYQSNGYQQLFSVVTNNGFSDWAMTNLDRVTQTMYYRLSRRGNDFLLEHSADGKIFNMMRMFHMFQAYTTVQFGFFASSPGDSSFAAHFSEIEWTECLWDAHTSSRFLEHHHHHH,not soluble
24,MKKPNHSGSGQIRIIGGQWRGRKLPVPDSPGLRPTTDRVRETLFNWLAPVIVDAQCLDCFAGSGALGLEALSRYAAGATLIEMDRVVSQQLIKNLATLKAGNARVVNSNAMSFLAQKGTPHNIVFVDPPFRRGLLEETINLLEDNGWLADEALIYVESEVENGLPTVPANWSLHREKVAGQVAYRLYQHEAQGESDAD,not soluble
25,MKKVLLIVISILFGSVLVGCQMNESNKTQDKIQSITGSVAYRERIALPDNAVVTVYLQDVSLADAPATVIAKQNFITNGMQVPLEFNLAYDSRKIKASHRYSVSARIEVDGKLRFITDTHYGVITDPEATKHVPMMLIGVHGE,not soluble
